Data on three molecules can be found in article PMC3542282, “P. falciparum cpn20 Is a Bona Fide Co-Chaperonin That Can Replace GroES in E. coli” (PLoS ONE, 2013).

Series [1] concerns the target T1, GroEL (E. coli, UniProt P0A6F5 1-548).
Series [2] has as its target P. falciparum cpn20 (P. falciparum). In words: AUC; sedimentation equilibrium, 12,000 rpm, 20°C, 20 mM Tris-HCl pH 7.4, 200 mM NaCl, read at 280 nm after 10, 12 and 14 hrs; with sedimentation velocity at 35,000 rpm, 0.5 mg/ml.
Another series concerns the target GroEL (E. coli) (UniProt P0A6F5).
Series [3] has as its target T1, GroEL. In words: cell-based or functional assay.
Series [4] concerns the molecule itself. In words: AUC; sedimentation equilibrium, 12,000 rpm, 20°C, 20 mM Tris-HCl pH 7.4, 200 mM NaCl, read at 280 nm after 10, 12 and 14 hrs; with sedimentation velocity at 35,000 rpm, 0.5 mg/ml.

For “GroES (from UniProt P0A6F9 1-97) (natural protein)”, the protomer ratio of co-chaperonin to GroEL required for half maximal refolding yield of urea-denatured MDH (10 µM GroEL, 0.16 to 20 µM co-chaperonin, 30 minutes) (co-chaperonin to GroEL protomer ratio) with GroEL [1] is 0.125.

In turn, P. falciparum cpn20 (natural protein) registered a stoichiometry N (subunits in the oligomer) in series [2] of 4. In addition, the protomer ratio of co-chaperonin to GroEL required for half maximal refolding yield of urea-denatured MDH (10 µM GroEL, 0.16 to 20 µM co-chaperonin, 30 minutes) (co-chaperonin to GroEL protomer ratio) with GroEL (E. coli) was 0.125.

B1: A. thaliana cpn20 (natural protein, UniProt O65282 51-253, looked up)
chain: AASVVAPKYTSIKPLGDRVLVKIKEAEEKTLGGILLPSTAQSKPQGGEVVAVGEGRTIGKNKIDITVPTGAQIIYSKYAGTEVEFNDVKHLILKEDDIVGILETEDIKDLKPLNDRVFIKVAEAEEKTAGGLLLTETTKEKPSIGTVIAVGPGSLDEEGKITPLPVSTGSTVLYSKYAGNDFKGKDGSNYIALRASDVMAILS
notes: cpn20 (20 kDa double-domain co-chaperonin of the chloroplast) from A. thaliana, At5g20720; probably the mature protein without the transit peptide (predicted tetramer 90 kDa); also called At-cpn20; At-Cpn20; source: bacterial expression, purified as previously described [23]
As a reminder, the stoichiometry N is a count of units in the complex or per binding partner. On to B1, for which the “protomer ratio of co-chaperonin to GroEL required for half maximal refolding yield of urea-denatured MDH (10 µM GroEL, 0.16 to 20 µM co-chaperonin, 30 minutes)” value with GroEL [3] is ~0.125 co-chaperonin to GroEL protomer ratio. Moreover, in series [4], the “stoichiometry N” value amounted to 4 subunits in the oligomer.
